Seven sequences from the DeepSol protein solubility set can be followed below.

The series is described as follows: soluble on expression in E. coli; label from the status in PepcDB or PDB records.
Take “MNRTDELRTARIESLVTPAELALRYPVTPGVATHVTDSRRRIEKILNGEDKRLLVIIGPCSIHDLTAAMEYATRLQSLRNQYQSRLEIVMRTYFEKPRTVVGWKGLISDPDLNGSYRVNHGLELARKLLLQVNELGVPTATEFLDMVTGQFIADLISWGAIGARTTESQIHREMASALSCPVGFKNGTDGNTRIAVDAIRAARASHMFLSPDKNGQMTIYQTSGNPYGHIIMRGGKKPNYHADDIAAACDTLHEFDLPEHLVVDFSHGNCQKQHRRQLEVCEDICQQIRNGSTAIAGIMAESFLREGTQKIVGSQPLTYGQSITDPCLGWEDTERLVEKLASAVDTRF”: the “soluble on expression in E. coli” value is reported as “soluble”. On to “SLLLRLCRWLRLLGYPTVAAHEVVDPTKVEDEDEVLVEFCREHDALLITRDRQLARRARAVLITADSVPEQIAEVLEFLGDEAFLDPDESRCPECNARVRRVTAENPGPFEVTWECPECRRKYWVGGHWRDMEETIDRVKKALRRVQRGHLRG”, for which the “soluble on expression in E. coli” value is given as “not soluble”. In the case of “MSLDVINQLPSPEALLEELHRVVSKPIRLMVVCGTHNRAILRYGIREELPDFIELVAGPGCSVCVMPTGHVDAFVKVARQPDVITATCEDLLKVRGSKESLADVLNEGVHRVEIISSPRQALELAYVEEDKIVVYPAVGFEATAPSIAETILEAAQNGVGNFCVIPSIRLLPPTIDALLLDPQLSIQGLLCSDHINTISDTEAYADLARKHSLSCCIAGFEKAEILQGILSMVKQIHRGESMVDASGAMVYSMEETARARRVVEEVFFPTETAWRGLGSIAESGFVIRDELALYDATKRFNVRFAEGTDQCMCHCNEIISGRALPPDCPAFGMACTLQNPVGPCMISNEGICAAYFKYKLESSRFSRLDVEGHHHHHH” it was “soluble”; in that of “MGSDKIHHHHHHMSKIKRGVSLYSFQEELFLGRMNVEDCVSFAASIGATGIEILPEQNMPTFPNLSDAQVEEWKAMVARHGCHFTAYDMFLDTKLRKDRLMSDDEQVESIVRDLRLCNRLGIRNMRVLVFVRPDILGRCVPYAEELDVHMGVEVHAPWHLEHAWILRTIEEADRLGTKHLGILPDMGIFMKHYPPAFRARFERQGARPEVTQFIVDQHEAKIMAEYTIYEVAVKMGGNKAEVAMAETLRHAPYANPKRIADYAPYFHHIQAKFYEMDEDCTDPSIAYDEVIDALVGCGWEGTLSSEYEGNRWIQDVHEVDSREQVRRQHVMFERLIVQSEARHAGKEAALCSTST”, “not soluble”. In the case of “MNHSRTIPVVNIAGPGSQPEEEDFNFLPIPAGINLPLTPVLPEQALPAELRVARHILTTLIRDMDNPVATLPFPLSYKLNATEQQNSGLLDQLLGEGEISARVLLSDGKEQRIQETVFTGVWRVREYNADQQRVADEIIIGPIPESIWQTHPQPPITPELPPQPAGLMNGAFIAHEIAERVKQPVKEPHIINLTLLPVNDADREYLDHFLGEGCSAIFSRGYGKCRIVSTHFPGVWRVNYFNDMNTLLQDMIEIADIPDIAVAGIDDIEDAYAGLKNTLEWLKEYPVTENEPVVRMECKVCWWVYDPALGDDVWQIPPGVPFNQLPDYWCCPVCETSKSGFMVIDEGNSSCKD” it was “not soluble”; in that of “SLTQKEQEEKLYMMLPVFNRVFGNAPPNTMTEKFSDLLQFTTQVSRLMVTEIRRRASNKSTEAASRAIVQFLEINQSEEASRGWMLLTTINLLASSGQKTVDCMTTMSVPSTLVKCLYLFFDLPHVPEAGGGAQNELPLAERRGLLQKAFVQILVKLCSFVSPAEELAQKDDLQLLFSAITSWCPPYNLPWRKSAGEVLMTISRHGLSVNVVKYIHEKECLSTCVQNMQQSDDLSPLEIVEMFAGLSCFLKDSSDVSQTLLDDFRIWQGYNFLCDLLLRLEQGKEAECRDALKDLVSLVTSLTTYGVSELKPAGVTTGAPFLLPGFAVPQPAGKGHSVRNIQAFAVLQNAFLKAKTNFLAQIILDAITNIYMADNANYFILESQHTLSQFAEKISKLPEVQNKYFEMLEFVVFSLNYIPCKELISVSILLKSSSSYHCSIIAMKTLLKFTRHDYIFKDVFREVGLLEVMVNLLHKYAALLKDPAQALN”, “soluble”; in that of “SQRRGQLSRRLVNSADRDPSDENSLSRAPAPACTSRGTHVVETTSLKRHSKVLRSQDASGTAESVNSQTPDDEVDHTLWTLVREVSDAEAAFWALRNDSRLLGFVLRSQLLALVHDDSSVTDFLEAAQQPTDVGDVQAEFILCWVPVPGGPAILWRADYQRLIEEQVARRLSELEDPARKAALWGTTREQVERDTHIRAADGSCWLRTLPCPPSVIRALTQGQKALVQQVKRMGRYGRLPLHRAELLRLSRTCFSARFHILDAVGCGTLALDAQNTLSKEPYLCLPEVRTTNIVDSGEIGF”, “soluble”.
